Tests used:
[1] = tested on: Dgeo_0257 (putative Dps, DgDps3) (Deinococcus geothermalis); test: EMSA; conditions: no added metal; half-maximal shift, fragment not specified; EMSA 1x (from 5x stock): 20 mM HEPES pH 7.2, 32 mM KCl, 0.1 mM EDTA, 10% glycerol, 70 ng/uL BSA, 8 ng/uL poly(dI-dC), 2.5 mM DTT; 37 C 30 min; 6% native PAGE …
[2] = tested on: DgDps1 (Dgeo_0281) (Deinococcus geothermalis); test: EMSA; conditions: EMSA 1x (from 5x stock): 20 mM HEPES pH 7.2, 32 mM KCl, 0.1 mM EDTA, 10% glycerol, 70 ng/uL BSA, 8 ng/uL poly(dI-dC), 2.5 mM DTT; 37 C 30 min; 6% native PAGE …
[3] = target: DgDps1 (Dgeo_0281) (Deinococcus geothermalis) (UniProt Q1J1Q0); test: SEC; HiLoad 16/600 Superdex 75 prep grade; 25 mM Tris-HCl pH 7.5, 150 mM NaCl; size markers ferritin 440 kDa, conalbumin 75 kDa, ovalbumin 43 kDa, anhydrase 29 kDa; also run with 1 mM Fe2+ or Fe3+

stoichiometry N [3] | Substance | Kd [1] | Kd [2]
– | Dgeo_2112 promoter region | < 4 µM | > 40 µM
2 | DgDps1 (Dgeo_0281) (from UniProt Q1J1Q0 1-222) (natural protein) | – | –
– | Dgeo_2112 ORF region | < 4 µM | > 40 µM

Source: paper PMC9820295
